Experiments:
[1] = target: T1, human CD123 SP1 ECD displayed on pDisplay-transfected cells (human, UniProt P26951 20-305); assay: MSD-CAT, hCD123 cells, assay-2; apparent KD (bivalent)
T1 construct: ECD anchored on the surface of stably transfected HEK293 cells by the PDGFR transmembrane domain; also called hCD123 SP1 cells; hCD123 cells
T1 sequence: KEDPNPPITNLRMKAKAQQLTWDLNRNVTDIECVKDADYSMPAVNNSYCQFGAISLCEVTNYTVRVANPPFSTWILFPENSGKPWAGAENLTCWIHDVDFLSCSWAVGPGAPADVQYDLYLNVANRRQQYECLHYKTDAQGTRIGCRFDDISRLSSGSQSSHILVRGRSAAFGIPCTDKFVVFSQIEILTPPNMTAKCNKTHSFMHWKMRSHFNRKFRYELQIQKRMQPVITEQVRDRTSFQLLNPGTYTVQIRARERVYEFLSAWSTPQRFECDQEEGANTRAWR

[2] = target: T2, human CD123 SP2 ECD displayed on pDisplay-transfected cells (human, UniProt P26951 101-305); assay: MSD-CAT on pDisplay cells
T2 construct: ECD anchored on the surface of stably transfected HEK293 cells; also called hCD123 SP2 cells; pDisplay CD123SP2
T2 sequence: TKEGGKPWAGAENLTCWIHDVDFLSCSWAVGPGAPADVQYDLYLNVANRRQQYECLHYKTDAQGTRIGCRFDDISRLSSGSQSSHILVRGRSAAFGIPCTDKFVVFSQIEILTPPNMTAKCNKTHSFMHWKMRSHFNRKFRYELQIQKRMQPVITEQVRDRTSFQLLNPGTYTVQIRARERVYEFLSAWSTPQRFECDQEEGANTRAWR

[3] = target: T1, human CD123 SP1 ECD displayed on …; assay: MSD-CAT on pDisplay cells
[4] = target: T3, Recombinant human CD123 SP2 ECD protein (human, UniProt P26951 101-303); assay: SPR ProteOn, captured mAb
T3 construct: also called rhCD123 SP2; CD123 ECD SP2
T3 sequence: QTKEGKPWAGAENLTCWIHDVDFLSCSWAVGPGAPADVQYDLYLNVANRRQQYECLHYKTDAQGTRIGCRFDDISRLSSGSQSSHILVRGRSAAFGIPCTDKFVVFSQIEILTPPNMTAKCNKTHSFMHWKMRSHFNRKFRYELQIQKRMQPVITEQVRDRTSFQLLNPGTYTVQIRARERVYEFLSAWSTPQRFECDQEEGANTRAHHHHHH

[5] = target: T4, Recombinant human CD123 SP1 ECD-His tag protein (human, UniProt P26951 20-305); assay: SPR ProteOn, captured mAb
T4 construct: bought from R&D Systems (#301-R3/CF); biotinylated for some assays; also called rhCD123 SP1; huCD123 ECD SP1
T4 sequence: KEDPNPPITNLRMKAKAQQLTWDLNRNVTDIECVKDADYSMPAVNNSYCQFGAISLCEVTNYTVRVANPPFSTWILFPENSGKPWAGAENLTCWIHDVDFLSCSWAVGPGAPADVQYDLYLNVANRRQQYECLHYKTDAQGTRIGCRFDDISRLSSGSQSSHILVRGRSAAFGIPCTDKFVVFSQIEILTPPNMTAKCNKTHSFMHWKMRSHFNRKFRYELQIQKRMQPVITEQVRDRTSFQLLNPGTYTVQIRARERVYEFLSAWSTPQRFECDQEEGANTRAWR

[6] = target: T5, cyno CD123 ECD displayed on pDisplay-transfected cells (cynomolgus monkey); assay: MSD-CAT, cynoCD123 cells, assay-2; apparent KD (bivalent)
T5 construct: ECD anchored on the surface of stably transfected HEK293 cells; also called cynoCD123 SP1 cells; cynoCD123 cells
T5 chain: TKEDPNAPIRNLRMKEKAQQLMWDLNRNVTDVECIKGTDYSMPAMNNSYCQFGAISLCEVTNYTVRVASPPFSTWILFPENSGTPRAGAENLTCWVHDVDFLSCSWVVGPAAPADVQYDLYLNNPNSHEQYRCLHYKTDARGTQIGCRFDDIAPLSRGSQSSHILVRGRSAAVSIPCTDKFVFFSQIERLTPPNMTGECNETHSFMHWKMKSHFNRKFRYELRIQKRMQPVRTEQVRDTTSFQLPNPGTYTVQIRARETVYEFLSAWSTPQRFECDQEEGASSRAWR

- Kd [1]: 0.343 nM
- Kd [2]: 0.049 nM
- Kd [3]: 0.047 nM
- Kd [4]: 0.363 nM
- koff [4]: 0.000978 s⁻¹
- kon [4]: 2.69e+06 M⁻¹ s⁻¹
- Kd [5]: 0.57 nM
- koff [5]: 0.00082 s⁻¹
- kon [5]: 1.44e+06 M⁻¹ s⁻¹
- Kd [6]: > 11.9 nM
B1: I3RB18 (antibody, IgG1, V domains shown)
VH: EVQLVQSGAEVKKPGESLKISCKGSGYSFTSYWISWVRQMPGKGLEWMGIIDPSDSDTRYSPSFQGQVTISADKSISTAYLQWSSLKASDTAMYYCARGDGSTDLDYWGQGTLVTVSS
VL: EIVLTQSPGTLSLSPGERATLSCRASQSVSSSYLAWYQQKPGQAPRLLIYGASSRATGIPDRFSGSGSGTDFTLTISRLEPEDFAVYYCQQDYGFPWTFGQGTKVEIK
notes: IgG1; also called 13RB18; mAb I3RB18

From patent publication US20160068605A1 (Janssen / Centocor, published 2016)
